Laboratory results as given in the supplement of paper PMC10567573.

B1: ALDH8A1 (parent)
chain: FTGSQPTAERITQLSAPHCKKLSL

Variants of: B1
Test: protein stability index of a GFP-peptide fusion (GPS, HEK-293T) (PSI 1-6); higher = more stable
Settings: c terminus: a fixed tail appended
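Note: lentivirally expressed fusions sorted by FACS into six bins by GFP to DsRed ratio, PSI derived from sequencing read proportions per bin multiplied by bin number.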

Row | Variant | protein stability index
1 | FTGSQPTAFRITQLSAPHCKKLSL [E9F] | 2.74
2 | FTGSQPTARRITQLSAPHCKKLSL [E9R] | 1.96
3 | FTGSQPTAVRITQLSAPHCKKLSL [E9V] | 1.46
4 | FTGSQPTACRITQLSAPHCKKLSL [E9C] | 2.14
5 | FTGSQPTASRITQLSAPHCKKLSL [E9S] | 1.86
6 | FTGSQPTAIRITQLSAPHCKKLSL [E9I] | 2.23
7 | FTGSQPTAYRITQLSAPHCKKLSL [E9Y] | 3.14
8 | FTGSQPTAPRITQLSAPHCKKLSL [E9P] | 2.05
9 | FTGSQPTAKRITQLSAPHCKKLSL [E9K] | 2.06
10 | FTGSQPTALRITQLSAPHCKKLSL [E9L] | 3.09
11 | FTGSQPTAWRITQLSAPHCKKLSL [E9W] | 3.33
12 | FTGSQPTAGRITQLSAPHCKKLSL [E9G] | 2.1
13 | FTGSQPTAHRITQLSAPHCKKLSL [E9H] | 2.15
14 | FTGSQPTAMRITQLSAPHCKKLSL [E9M] | 1.37
15 | FTGSQPTADRITQLSAPHCKKLSL [E9D] | 2.52
16 | FTGSQPTAQRITQLSAPHCKKLSL [E9Q] | 2.09
17 | FTGSQPTAARITQLSAPHCKKLSL [E9A] | 1.96
18 | FTGSQPTANRITQLSAPHCKKLSL [E9N] | 1.99
19 | FTGSQPTATRITQLSAPHCKKLSL [E9T] | 1.87
20 | FTGSQPTAERYTQLSAPHCKKLSL [I11Y] | 2.18
21 | FTGSQPTAERSTQLSAPHCKKLSL [I11S] | 2.22
22 | FTGSQPTAERTTQLSAPHCKKLSL [I11T] | 2.84
23 | FTGSQPTAERFTQLSAPHCKKLSL [I11F] | 2.9
24 | FTGSQPTAERATQLSAPHCKKLSL [I11A] | 2.48

Row | Variant | protein stability index
25 | FTGSQPTAERPTQLSAPHCKKLSL [I11P] | 3.32
26 | FTGSQPTAERDTQLSAPHCKKLSL [I11D] | 3.39
27 | FTGSQPTAERRTQLSAPHCKKLSL [I11R] | 2.81
28 | FTGSQPTAERMTQLSAPHCKKLSL [I11M] | 2.61
29 | FTGSQPTAERLTQLSAPHCKKLSL [I11L] | 2.15
30 | FTGSQPTAERHTQLSAPHCKKLSL [I11H] | 2.96
31 | FTGSQPTAERVTQLSAPHCKKLSL [I11V] | 2.44
32 | FTGSQPTAERWTQLSAPHCKKLSL [I11W] | 2.08
33 | FTGSQPTAERCTQLSAPHCKKLSL [I11C] | 2.6
34 | FTGSQPTAERKTQLSAPHCKKLSL [I11K] | 1.93
35 | FTGSQPTAERETQLSAPHCKKLSL [I11E] | 2.73
36 | FTGSQPTAERQTQLSAPHCKKLSL [I11Q] | 2.49
37 | FTGSQPTAERGTQLSAPHCKKLSL [I11G] | 2.09
38 | FTGSQPTAERNTQLSAPHCKKLSL [I11N] | 2.4
39 | FTGSQPTAERIMQLSAPHCKKLSL [T12M] | 2
40 | FTGSQPTAERISQLSAPHCKKLSL [T12S] | 2.79
41 | FTGSQPTAERIRQLSAPHCKKLSL [T12R] | 2.89
42 | FTGSQPTAERIVQLSAPHCKKLSL [T12V] | 2.15
43 | FTGSQPTAERIDQLSAPHCKKLSL [T12D] | 2.32
44 | FTGSQPTAERILQLSAPHCKKLSL [T12L] | 1.79
45 | FTGSQPTAERIQQLSAPHCKKLSL [T12Q] | 2.36
46 | FTGSQPTAERIGQLSAPHCKKLSL [T12G] | 2.27
47 | FTGSQPTAERIPQLSAPHCKKLSL [T12P] | 2.32
48 | FTGSQPTAERIHQLSAPHCKKLSL [T12H] | 1.84

Row | Variant | protein stability index
49 | FTGSQPTAERIEQLSAPHCKKLSL [T12E] | 3.25
50 | FTGSQPTAERIAQLSAPHCKKLSL [T12A] | 2.21
51 | FTGSQPTAERICQLSAPHCKKLSL [T12C] | 1.83
52 | FTGSQPTAERIFQLSAPHCKKLSL [T12F] | 2.86
53 | FTGSQPTAERIKQLSAPHCKKLSL [T12K] | 2.3
54 | FTGSQPTAERIIQLSAPHCKKLSL [T12I] | 1.51
55 | FTGSQPTAERINQLSAPHCKKLSL [T12N] | 2.25
56 | FTGSQPTAERIWQLSAPHCKKLSL [T12W] | 3.11
57 | FTGSQPTAERIYQLSAPHCKKLSL [T12Y] | 2.69
58 | FTGSQPTAEYITQLSAPHCKKLSL [R10Y] | 1.65
59 | FTGSQPTAEAITQLSAPHCKKLSL [R10A] | 2.31
60 | FTGSQPTAESITQLSAPHCKKLSL [R10S] | 2.42
61 | FTGSQPTAEMITQLSAPHCKKLSL [R10M] | 1.97
62 | FTGSQPTAENITQLSAPHCKKLSL [R10N] | 2.6
63 | FTGSQPTAEDITQLSAPHCKKLSL [R10D] | 2.31
64 | FTGSQPTAETITQLSAPHCKKLSL [R10T] | 2.39
65 | FTGSQPTAEGITQLSAPHCKKLSL [R10G] | 2.28
66 | FTGSQPTAELITQLSAPHCKKLSL [R10L] | 2.11
67 | FTGSQPTAECITQLSAPHCKKLSL [R10C] | 1.94
68 | FTGSQPTAEHITQLSAPHCKKLSL [R10H] | 2.3
69 | FTGSQPTAEPITQLSAPHCKKLSL [R10P] | 2.7
70 | FTGSQPTAEKITQLSAPHCKKLSL [R10K] | 1.81
71 | FTGSQPTAEFITQLSAPHCKKLSL [R10F] | 1.9
72 | FTGSQPTAEEITQLSAPHCKKLSL [R10E] | 2.51

Row | Variant | protein stability index
73 | FTGSQPTAEVITQLSAPHCKKLSL [R10V] | 1.63
74 | FTGSQPTAEWITQLSAPHCKKLSL [R10W] | 1.93
75 | FTGSQPTAEQITQLSAPHCKKLSL [R10Q] | 2.17
76 | FTGSQPTAEIITQLSAPHCKKLSL [R10I] | 1.92
77 | FTGSQPTAERITQLKAPHCKKLSL [S15K] | 1.84
78 | FTGSQPTAERITQLVAPHCKKLSL [S15V] | 2.36
79 | FTGSQPTAERITQLYAPHCKKLSL [S15Y] | 3.69
80 | FTGSQPTAERITQLAAPHCKKLSL [S15A] | 2.39
81 | FTGSQPTAERITQLPAPHCKKLSL [S15P] | 2.32
82 | FTGSQPTAERITQLFAPHCKKLSL [S15F] | 3.03
83 | FTGSQPTAERITQLCAPHCKKLSL [S15C] | 2.34
84 | FTGSQPTAERITQLNAPHCKKLSL [S15N] | 1.91
85 | FTGSQPTAERITQLQAPHCKKLSL [S15Q] | 2.09
86 | FTGSQPTAERITQLWAPHCKKLSL [S15W] | 2.39
87 | FTGSQPTAERITQLTAPHCKKLSL [S15T] | 2.25
88 | FTGSQPTAERITQLHAPHCKKLSL [S15H] | 1.85
89 | FTGSQPTAERITQLEAPHCKKLSL [S15E] | 2.37
90 | FTGSQPTAERITQLRAPHCKKLSL [S15R] | 1.71
91 | FTGSQPTAERITQLMAPHCKKLSL [S15M] | 2.13
92 | FTGSQPTAERITQLIAPHCKKLSL [S15I] | 2.28
93 | FTGSQPTAERITQLDAPHCKKLSL [S15D] | 2.18
94 | FTGSQPTAERITQLGAPHCKKLSL [S15G] | 2.5
